Results: publication doi:10.1101/699132 (bioRxiv, 2020)

Molecular target: the molecule itself
Assay: non-reducing SDS-PAGE and immunoblot

B1: PRDX4, murine islets (enzyme, mouse (endogenous in murine islets), UniProt O08807 41-274, looked up)
chain: LESDERFRTRENECHFYAGGQVYPGEASRVSVADHSLHLSKAKISKPAPYWEGTAVINGEFKELKLTDYRGKYLVFFFYPLDFTFVCPTEIIAFGDRIEEFKSINTEVVACSVDSQFTHLAWINTPRRQGGLGPIRIPLLSDLNHQISKDYGVYLEDSGHTLRGLFIIDDKGVLRQITLNDLPVGRSVDETLRLVQAFQYTDKHGEVCPAGWKPGSETIIPDPAGKLKYFDKLN
Question: For B1, which “stoichiometry N” value is on record?
Answer: The value was 2.
